Data from patent US20240425593A1.
Read-outs that look alike come from different tables or passages of the source.

Assays:
[1] = biological target: full-length human PD-1 on CHO-hPD-1 cells (human) (UniProt Q15116); assay: flow cytometry on CHO-hPD-1 cells with FITC-labeled antibody
monkey PD-1-hFc (monkey) [2] = assay: ELISA, coated monkey PD-1-hFc
[3] = biological target: human PD-1-ECD-mFc (human; mouse) (UniProt Q15116); assay: ELISA, coated human PD-1-mFc
human PD-1-His (human) = human PD-1-His (human) (UniProt Q15116); assay: BLI (Octet ForteBio), antibody on ProA biosensor, PD-1-His in solution
Chain of human PD-1-His (human) (Q15116 25-170): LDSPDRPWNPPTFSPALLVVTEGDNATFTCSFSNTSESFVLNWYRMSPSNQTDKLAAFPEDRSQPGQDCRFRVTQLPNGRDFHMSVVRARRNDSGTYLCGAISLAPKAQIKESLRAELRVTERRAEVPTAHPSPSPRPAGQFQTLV

[4] = biological target: PD-1 on Jurkat-PD-1-NFAT cells (UniProt Q15116); assay: cell-based or functional assay
Chain of PD-1 on Jurkat-PD-1-NFAT cells (Q15116 25-288 limits assumed): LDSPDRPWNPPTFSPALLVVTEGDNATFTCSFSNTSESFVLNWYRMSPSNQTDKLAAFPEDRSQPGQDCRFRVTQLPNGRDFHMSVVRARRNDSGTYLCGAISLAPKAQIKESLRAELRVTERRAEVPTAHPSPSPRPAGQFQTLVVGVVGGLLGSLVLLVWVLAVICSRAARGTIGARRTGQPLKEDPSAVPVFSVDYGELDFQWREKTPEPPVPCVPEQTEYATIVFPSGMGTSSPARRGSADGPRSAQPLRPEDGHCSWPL

[5] = biological target: full-length human PD-1 on CHO-hPD-1 cells (human) (UniProt Q15116); assay: flow cytometry, FITC-labelled antibody on CHO-hPD-1 cells
FcRn protein = FcRn protein (UniProt P55899); assay: BLI (Octet ForteBio), FcRn on SA biosensor, antibody in PBST pH6.0
Chain of FcRn protein (P55899 24-297 limits assumed, chain 1 of 2): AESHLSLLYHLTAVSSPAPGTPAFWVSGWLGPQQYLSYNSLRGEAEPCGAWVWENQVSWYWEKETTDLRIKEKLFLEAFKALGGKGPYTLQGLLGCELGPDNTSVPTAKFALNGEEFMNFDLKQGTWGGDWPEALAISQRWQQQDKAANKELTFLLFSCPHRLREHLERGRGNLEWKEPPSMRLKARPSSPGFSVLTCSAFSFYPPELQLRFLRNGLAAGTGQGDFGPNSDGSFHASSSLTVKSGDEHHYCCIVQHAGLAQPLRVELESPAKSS
Chain of FcRn protein (chain, as listed by the source limits assumed, chain 2 of 2): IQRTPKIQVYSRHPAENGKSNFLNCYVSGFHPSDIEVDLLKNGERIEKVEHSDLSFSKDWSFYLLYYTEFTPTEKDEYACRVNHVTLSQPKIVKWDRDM

monkey PD-1-hFc (monkey) [6] = assay: ELISA, coated monkey PD-1-hFc; remark: listed apart in the source
CD64 protein = CD64 protein (UniProt P12314); assay: BLI (Octet ForteBio), CD64 on SA biosensor, antibody in solution
Chain of CD64 protein (P12314 16-288 limits assumed): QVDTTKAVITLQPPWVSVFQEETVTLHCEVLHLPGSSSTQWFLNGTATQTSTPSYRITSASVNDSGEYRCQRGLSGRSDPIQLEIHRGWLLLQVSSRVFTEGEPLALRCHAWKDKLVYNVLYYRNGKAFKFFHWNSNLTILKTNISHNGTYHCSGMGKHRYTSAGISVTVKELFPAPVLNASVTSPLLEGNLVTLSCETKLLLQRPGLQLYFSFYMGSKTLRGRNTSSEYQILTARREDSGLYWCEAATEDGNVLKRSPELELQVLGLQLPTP

Chain of control antibody 3 (tirelizumab, IMGT ID: 757) (HC): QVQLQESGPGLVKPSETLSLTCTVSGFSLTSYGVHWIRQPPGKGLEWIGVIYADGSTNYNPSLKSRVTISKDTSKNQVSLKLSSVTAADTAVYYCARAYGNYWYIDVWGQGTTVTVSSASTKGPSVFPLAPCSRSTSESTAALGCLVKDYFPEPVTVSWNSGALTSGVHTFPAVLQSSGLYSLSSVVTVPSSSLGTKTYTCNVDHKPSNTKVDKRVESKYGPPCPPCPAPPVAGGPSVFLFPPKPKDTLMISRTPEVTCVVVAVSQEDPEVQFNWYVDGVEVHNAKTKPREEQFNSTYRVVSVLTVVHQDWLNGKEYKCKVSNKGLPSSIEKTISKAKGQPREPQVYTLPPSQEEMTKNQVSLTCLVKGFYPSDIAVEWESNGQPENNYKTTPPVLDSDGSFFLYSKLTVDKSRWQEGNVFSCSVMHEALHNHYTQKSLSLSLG
Chain of control antibody 3 (tirelizumab, IMGT ID: 757) (LC): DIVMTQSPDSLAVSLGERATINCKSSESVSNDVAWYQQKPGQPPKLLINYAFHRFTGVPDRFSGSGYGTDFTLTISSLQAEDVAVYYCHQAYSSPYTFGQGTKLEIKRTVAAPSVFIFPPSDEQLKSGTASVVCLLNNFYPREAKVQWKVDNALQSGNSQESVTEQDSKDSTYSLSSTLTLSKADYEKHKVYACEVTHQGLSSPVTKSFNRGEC
Chain of monkey PD-1-hFc (monkey) (chain, as listed by the source limits assumed): as the sequence (Q15116 25-170) above, with D2E, V19L, T35A, Q67R, T144A counted along it
Chain of full-length human PD-1 on CHO-hPD-1 cells (human) (Q15116 25-288): as the sequence (Q15116 25-288 limits assumed) above
Chain of human PD-1-ECD-mFc (human; mouse) (Q15116 25-170): as the sequence (Q15116 25-170) above

control antibody 3 (tirelizumab, IMGT ID: 757)
EC50 (read off the curve) [1]: 10 ng/mL | EC50 (monkey PD-1-hFc (monkey) [2]): 0.278 nM | EC50 [3]: 0.121 nM | Kd (human PD-1-His (human)): 5.95 nM | EC50 by the PD-1/PD-L1 luciferase reporter system [4]: 3.79 nM | EC50 [5]: 0.094 nM | Kd (FcRn protein): 14.5 nM

control antibody 1 (pembrolizumab, IMGT ID: 472)
EC50 (monkey PD-1-hFc (monkey) [2]): 0.32 nM | EC50 (monkey PD-1-hFc (monkey) [6]): 0.131 nM | Kd (CD64 protein): 6.94 nM | Kd (FcRn protein): 16.8 nM
